Changes are numbered by the printed parent chain.
B1: C978 (R1-32-like mAb, ref. 27) (antibody, V domains shown)
VH: QVQLVQSGAEVKKPGSSVKVSCKASGATFSNYIISWVRQAPGQGLEWMGRTIPLLDIANYAQKFQGRVTITADKSTRIVYMHLGSLTSEDTAVYYCATGKGYSSSSAAYYFDHWGQGTLVTVSS
VL: QSVLTQPPSVSGAPGQRVTISCTGTNSNIGAGYDIHWYQQLPGTAPKLLIYGSNNRPSGVPDRFSGSKSGTSASLAITGLQAEDEADYYCQSYDSSLSGSEVFGGGTKLTVL
B2: C963 (R1-32-like mAb, ref. 27) (antibody, V domains shown)
VH: QVQLVQSGAEVKKPGSSVRVSCKASGGTFSSFTITWVRQAPGQGLEWMGRIIPNLNIPNYAQRFQGRITITAEKSTSTAYLELSSLRSEDTAVYYCARGVGYSGSGSNWYFDLWGRGTLVTVSS
VL: QSVLTQPPSVSGAPGQRVTISCTGSSSNIGAGYDVHWYQQLPGTAPKLLISGHINRPSGVPDRFSGSTSGTSASLAITGLQAEDEADYYCQSYDSSLSDSVFGGGTKLTV
B3: C941 (R1-32-like mAb, ref. 27) (antibody, V domains shown)
VH: QVQLVQSGAEVKKPGSSVKVSCKASGGTSRSYPISWVRQAPGQGLEWMGRIIPIVGTANYAQRFQGRVTITADESTGTAYMELSSLRSEDTAVYYCARNRGYSDYGSVYYFDYWGQGTLVTVSS
VL: B2 VL with T44A, S51Y, G52R, H53N, T68K, E83D, D99G
B4: FC08 (antibody, V domains shown)
VH: QLLQQSGAEVKKPGSSVKVSCKASGGTFSSYAISWVRQAPGQGLEWMGGIIPIIGIANYAQKFQGRVTITADKSTSTAYMELSSLRSEDTAVYYCARERGYSGYGAAYYFDYWGQGTLVTVSS
VL: SVLTQPPSVSGAPGQRVTISCTGSSSNIGAGYDVHWYQQLPGTAPKLLIYGNSNRPSGVPDRFSGSKSGTSASLAITGLQAEDEADYYCQSYDSSLSGSVFGGGTKLTVL
B5: FC08 (R1-32 related VH1-69 antibody, ref. 10) (antibody, V domains shown)
VH: B4 VH
VL: B4 VL
B6: R1-32 (antibody, V domains shown)
VH: EVQLVESGAEVKKPGSSVKVSCKASGGTFSSYAISWVRQAPGQGLEWMGGIIPILGIANYAQKFQGRVTITADKSTSTAYMELSSLRSEDTAVYYCARENGYSGYGAAANFDLWGRGTLVTVSS
VL: QSVLTQPPSVSGAPGQRVTISCTGSSSNIGAGYDVHWYQQLPGTAPKLLIYGNSNRPSGVPDRFSGSKSGTSASLAITGLQAEDEADYYCQSYDSSLSGSVFGGGTKLTVL
notes: human IgG1
B7: C807 (R1-32-like mAb, ref. 29) (antibody, V domains shown)
VH: QVQLVQSGAEAKKPGSSVKVSCKASGGTFKSYIINWVRQAPGQGLEWMGEIIPIFGTANYAQKFQGRVTSTADESTSTAYMELSSLKSEDTAVYYCARGRGYSGYGASYYFDYWGQGTLVTVSS
VL: B6 VL with S26N, G52A, S96G
B8: C832 (R1-32-like mAb, ref. 29) (antibody, V domains shown)
VH: QVQLVQSGAEVKKPGSSVKVSCKASGGTFSSYSISWVRQAPGQGLEWMGRIIPILGIASYAQKFQGRVTITADKSTSTVYMELTGLRSDDTAVYYCARDRGYSDYGSHYYMDVWGKGTTVTVSS
VL: B6 VL with G52I, G99D
B9: C091 (R1-32-like mAb, ref. 28) (antibody, V domains shown)
VH: B8 VH with S33T, S59N, V79A, T84S, G85S, D89E, R100S, D104G, H108T
VL: B6 VL with G104T, G105V, L108V
B10: R1-32 (human IgG1 monoclonal antibody) (antibody, V domains shown)
VH: B6 VH
VL: B6 VL
B11: C092 (R1-32-like mAb, ref. 28) (antibody, V domains shown)
VH: QVQLVQSGAEVKKPGSSVKVSCKASGGSFTNHFISWVRQAPGQGLEWMGRIIPILGTANYAQNFQGRVMMTADKSTSTAYMELSSLRSEDTAVYYCARDSGYSGYGSTYYMDVWGKGTTVTVSS
VL: B6 VL with S26N, T44A, S54N, G70D, A82V, G99D, G104S, L108V

Legend:
Assay in all cases: BLI
Settings in all cases: both partners purified
[1] = target: recombinant SARS-CoV-2 RBD-His protein (Sino Biological, 40592-V08B) (SARS-CoV-2, UniProt P0DTC2)
[2] = target: SARS-CoV-2 RBD (residues 319-541), wild type (SARS-CoV-2, wild type, UniProt P0DTC2)
[3] = target: T1, SARS-CoV-2 Alpha RBD (SARS-CoV-2 Alpha (B.1.1.7), N501Y (stands in the printed letters))
[4] = target: S-R/x3 SARS-CoV-2 spike (x3 disulfide-stabilized RBD 'down' spike) (SARS-CoV-2, wild type (Wuhan-Hu-1 spike), UniProt P0DTC2, stabilised)
[5] = target: S-R SARS-CoV-2 spike (unstabilized native spike with furin site changed to a single R) (SARS-CoV-2, wild type (Wuhan-Hu-1 spike), UniProt P0DTC2, stabilised)
[6] = target: T1, SARS-CoV-2 Alpha RBD; remark: listed apart in the source
[7] = target: T1, SARS-CoV-2 Alpha RBD; remark: listed apart in the source
[8] = target: SARS-CoV-2 Alpha (B.1.1.7) variant RBD (SARS-CoV-2 Alpha (B.1.1.7), N501Y)
[9] = target: S-R/x2 SARS-CoV-2 spike (x2 disulfide-stabilized RBD 'down' spike) (SARS-CoV-2, wild type (Wuhan-Hu-1 spike), UniProt P0DTC2, stabilised)
[10] = target: S-R/PP SARS-CoV-2 spike (2P-stabilized spike with furin site changed to a single R) (SARS-CoV-2, wild type (Wuhan-Hu-1 spike), UniProt P0DTC2, stabilised)

Binder	binding result [1]	binding result [2]	further results
B1	binds	binds	–
B2	binds	binds	–
B3	binds	binds	–
B4	–	–	Kd [3]: 0.15 nM; koff [3]: 0.00025 s⁻¹; kon [3]: 1.69e+06 M⁻¹ s⁻¹
B5	–	binds	binding result [4]: binds; binding result [5]: binds
B6	–	–	koff [6]: 0.000354 s⁻¹; kon [6]: 499000 M⁻¹ s⁻¹; Kd [7]: 4.74 nM; koff [7]: 0.00195 s⁻¹; kon [7]: 411000 M⁻¹ s⁻¹
B7	binds	binds	–
B8	binds	binds	–
B9	binds	binds	–
B10	–	–	binding result [4]: binds; Kd [8]: 0.71 nM; binding result [5]: binds; binding result [9]: binds; binding result [10]: binds
B11	binds	binds	–

— PMC9519457 (Nature Microbiology, 2022)
